Series [1] has as its target T1, ubiquitin (WT) (UniProt P0CG48 1-76).
T1 construct: WT ubiquitin, the cut product of the ubiquitin precursor (G76 printed as the residue linked to Ube2N); In the rows of the crystal structure it is the ubiquitin moiety of the conjugate m8, linked by G76 to Ube2N K87; source: E. coli Rosetta 2 DE3, purified (perchloric acid precipitation, cation exchange, SEC)
Kind of series: crystal structure; T21-R with Ube2N^C87K/K92A~Ub, 2.8 Å, space group P1, two complexes in the asymmetric unit (2xT21-R, 2xUbe2N~Ub). Particulars: both partners purified.

Series [2] deals with the molecule itself. Described as above.

B1: TRIM21-RING (residue 1-85) (domain or fragment)
chain: GSHMASAARLTMMWEEVTCPICLDPFVEPVSIECGHSFCQECISQVGKGGGSVCPVCRQRFLLKNLRPNRQLANMVNNLKEISQEARE
notes: tripeptide scar left at the N-terminus after cleavage of the GST tag; TRIM21 RING domain (T21-R), residues 1-85; Wild-type RING; a RING dimer in the crystal (2xT21-R and 2xUbe2N~Ub in the asymmetric unit); also called T21-R; TRIM21 RING domain; source: E. coli C41 DE3 or BL21 DE3, purified (glutathione sepharose, tag cleaved on beads, SEC); not shown: GST, N-terminal, cleaved
For the molecule B1, the binding result in series [1] and in series [2] was “binds” each time.
